Source: the RNAGym collection of RNA variant scans (doi:10.7554/elife.80360)

B1: Hairpin Ribozyme (parent)
chain: GUCCUCUUUCACGUGCGCGUGAAAGAGAGAAGUGAACCAGAGAAACACACGUUGUGGUAUAUUACCUGGUA

Variants of: B1
Assay: self-cleavage, relative activity (ratio to wild type); higher = more cleavage; co-transcriptional

Variant	self-cleavage
GUCCUCCUUCACGUGCGCGUGAAAGAGAGAAGUGAACCAGAGAAACACACGUUGUGGUAAAUUACCUGGUA [U7C U60A]	0.737
GUCCUCCUUCACGUGCGCGUGAAAGAGAGAAGUGAACCAGAGAAACACACGUUGUGGUAGAUUACCUGGUA [U7C U60G]	0.621
GUCCUCGUUCACGUGCGCGUGAAAGAGAAAAGUGAACCAGAGAAACACACGUUGUGGUAUAUUACCUGGUA [U7G G29A]	0.22
GUCCUCGUUCACGUGCGCGUGAAAGAGACAAGUGAACCAGAGAAACACACGUUGUGGUAUAUUACCUGGUA [U7G G29C]	0.134
GUCCUCGGUCACGUGCGCGUGAAAGAGAGAAGUGAACCAGAGAAACACACGUUGUGGUAUAUUACCUGGUA [U7G U8G]	0.768
GUCCUCGUUCACGUGCGCGUGAAAGAGAGGAGUGAACCAGAGAAACACACGUUGUGGUAUAUUACCUGGUA [U7G A30G]	0.081
GUCCUCGUUCACGUGCGCGUGAAGGAGAGAAGUGAACCAGAGAAACACACGUUGUGGUAUAUUACCUGGUA [U7G A24G]	0.697
GUCCUCGUUCACGUGCGCGUGAAAGAGAGAAGUGAACCAGAGAAACUCACGUUGUGGUAUAUUACCUGGUA [U7G A47U]	0.0788
GUCCUCGUUCACGUGCGCGUGAAAGAGAGAAGUGAACCAGAGAAACCCACGUUGUGGUAUAUUACCUGGUA [U7G A47C]	0.234
GUCCUCGUUCACGUGCGCGUGAAAGAGAGAAUUGAACCAGAGAAACACACGUUGUGGUAUAUUACCUGGUA [U7G G32U]	0.135
GUCCUCGUUCACGUGCGCGUGAAAGAGAGAAAUGAACCAGAGAAACACACGUUGUGGUAUAUUACCUGGUA [U7G G32A]	0.173
GUCCUCGUUCACGUGCGCGUGAAAGAGAGAAGUGAACCAGAGAAACAUACGUUGUGGUAUAUUACCUGGUA [U7G C48U]	0.114
GUCCUCGUUCACGUGCGCUUGAAAGAGAGAAGUGAACCAGAGAAACACACGUUGUGGUAUAUUACCUGGUA [U7G G19U]	0.414
GUCCUCGUUCAGGUGCGCGUGAAAGAGAGAAGUGAACCAGAGAAACACACGUUGUGGUAUAUUACCUGGUA [U7G C12G]	0.658
GUCCUCCUUCACGUGCGCGUGAAAGAGAGAAGUGAACCAGAGAAACACACGUUGUGGUAUAUUACCUGAUA [U7C G69A]	0.289
GUCCUCGUUCACGUACGCGUGAAAGAGAGAAGUGAACCAGAGAAACACACGUUGUGGUAUAUUACCUGGUA [U7G G15A]	0.736
GUCCUCGUUCACGUGCGCGUGAAAGAGAGAAGUGAACCAGAGAAACACACGUUGUGGUAUAUUACUUGGUA [U7G C66U]	0.355
GUCCUCCUUCACGUGCGCGUGAAAGAGAGAAGUGAACCAGAUAAACACACGUUGUGGUAUAUUACCUGGUA [U7C G42U]	0.205
GUCCUCGUUCACGUGCGCGUGAAAGAGAGAAGUGAAUCAGAGAAACACACGUUGUGGUAUAUUACCUGGUA [U7G C37U]	0.531
GUCCUCGUUCACGUGCGCGUGAAAGAGAGAAGUGAAGCAGAGAAACACACGUUGUGGUAUAUUACCUGGUA [U7G C37G]	0.239
GUCCUCGUCCACGUGCGCGUGAAAGAGAGAAGUGAACCAGAGAAACACACGUUGUGGUAUAUUACCUGGUA [U7G U9C]	0.66
GUCCUCGUUCACGUGCGCGUGAAAGAGAGAAGUGAACCAGAUAAACACACGUUGUGGUAUAUUACCUGGUA [U7G G42U]	0.299
GUCCUCGUUCACGUGCGCGUGAAAGAGAGAAGUGAACAAGAGAAACACACGUUGUGGUAUAUUACCUGGUA [U7G C38A]	0.129
GUCCUCGUUCACGUGCGCGUGAAAGAGAGAAGUGAACGAGAGAAACACACGUUGUGGUAUAUUACCUGGUA [U7G C38G]	0.0992
GUCCUCCUUCACGUGCGCGUGAAAGAGAGAAGAGAACCAGAGAAACACACGUUGUGGUAUAUUACCUGGUA [U7C U33A]	0.068
GUCCUCGUUCACGUGCGCGUGAAAGUGAGAAGUGAACCAGAGAAACACACGUUGUGGUAUAUUACCUGGUA [U7G A26U]	0.384

Variant	self-cleavage
GUCCUCGUUCACCUGCGCGUGAAAGAGAGAAGUGAACCAGAGAAACACACGUUGUGGUAUAUUACCUGGUA [U7G G13C]	0.618
GUCCUCGUUCACGUGCGCGUGAAAGAGAGAAGUGAACCAGAGAUACACACGUUGUGGUAUAUUACCUGGUA [U7G A44U]	0.139
GUCCUCGUUCACGUGCGCGUGAAAGAGAGAAGUGAACCAGAGAAUCACACGUUGUGGUAUAUUACCUGGUA [U7G A45U]	0.2
GUCCUCCUUCACGUGCGCGUGAAAGAGAGAAGUGAACCAGAGAAACACACGUUGUGGUAUAGUACCUGGUA [U7C U62G]	0.179
GUCCUCGUUGACGUGCGCGUGAAAGAGAGAAGUGAACCAGAGAAACACACGUUGUGGUAUAUUACCUGGUA [U7G C10G]	0.643
GUCCUCGUUAACGUGCGCGUGAAAGAGAGAAGUGAACCAGAGAAACACACGUUGUGGUAUAUUACCUGGUA [U7G C10A]	0.765
GUCCUCGUUUACGUGCGCGUGAAAGAGAGAAGUGAACCAGAGAAACACACGUUGUGGUAUAUUACCUGGUA [U7G C10U]	0.64
GUCCUCGUUCACGUGCCCGUGAAAGAGAGAAGUGAACCAGAGAAACACACGUUGUGGUAUAUUACCUGGUA [U7G G17C]	0.612
GUCCUCGUUCACGUGCUCGUGAAAGAGAGAAGUGAACCAGAGAAACACACGUUGUGGUAUAUUACCUGGUA [U7G G17U]	1.04
GUCCUCGUUCACGUGCACGUGAAAGAGAGAAGUGAACCAGAGAAACACACGUUGUGGUAUAUUACCUGGUA [U7G G17A]	0.849
GUCCUCGUUCACGUGCGCGUGAAAGAGAGAAGUGAACCAGAGAAACACACGUUGUGGUAUUUUACCUGGUA [U7G A61U]	0.203
GUCCUCGUUCACGUGCGCGAGAAAGAGAGAAGUGAACCAGAGAAACACACGUUGUGGUAUAUUACCUGGUA [U7G U20A]	0.294
GUCCUCCUUCACGUGCGCGUGAAAGAGAGAAGUGAACCAGAGAAACACACAUUGUGGUAUAUUACCUGGUA [U7C G51A]	0.69
GUCCUCGUUCACGUGCGCGUGAAAGAGAGAAGUGAACCAGAGAAACACACUUUGUGGUAUAUUACCUGGUA [U7G G51U]	0.844
GUCCUCCUUCACGUGCGCGUGAAAGAGAGAAGUGAACCAGAGAAACACACGUUGUGGUAUAUUACCGGGUA [U7C U67G]	0.171
GUCCUCCUCCACGUGCGCGUGAAAGAGAGAAGUGAACCAGAGAAACACACGUUGUGGUAUAUUACCUGGUA [U7C U9C]	0.673
GUCCUCCUGCACGUGCGCGUGAAAGAGAGAAGUGAACCAGAGAAACACACGUUGUGGUAUAUUACCUGGUA [U7C U9G]	0.35
GUCCUCCUUCACGUGCGCGUGAAAGAGAGAAGUGAACCAGAGAAACACACGUUGUGGUAUAUUACCUCGUA [U7C G68C]	0.302
GUCCUCGUUCACGUGCGCGUGAAAGAGAGAAGUGAACCAGAGAAACACACGUUGUGGUAUAUUACCUUGUA [U7G G68U]	0.269
GUCCUCGUUCACGUGCGCGUGAAAGAGAGAAGUGAACCAGAGAAACACACGUUGUGCUAUAUUACCUGGUA [U7G G57C]	0.206
GUCCUCGUUCACGUGCGCGUGAAAGAGAGACGUGAACCAGAGAAACACACGUUGUGGUAUAUUACCUGGUA [U7G A31C]	0.11
GUCCUCCGUCACGUGCGCGUGAAAGAGAGAAGUGAACCAGAGAAACACACGUUGUGGUAUAUUACCUGGUA [U7C U8G]	0.484
GUCCUCGUUCACGUGCGCGUGAAAGAGAGAAGUGAACCAGAGAAACACACGUUGUGGUAUAUUAUCUGGUA [U7G C65U]	0.369
GUCCUCGUUCACGUGCGCGUGAAAGAGAGAAGUGAACCAGAGAAACACACGUUGUGGUAUAUUACCUGGUA [U7G]	0.875
GUCCUCGUUCACGUGCGCGUGAUAGAGAGAAGUGAACCAGAGAAACACACGUUGUGGUAUAUUACCUGGUA [U7G A23U]	0.883
GUCCUCCUUCACGUGCGCGUGAAAGAGAGAAGUGAACCAGAGAAACACACGUUGUGGUAUAUUACCUGGAA [U7C U70A]	1.02

Variant	self-cleavage
GUCCUCCUUCACGUGCGCGUGAAAGAGAGAAGUGAACCAGAGAAACACACGUUGUGGUAUAUUACCUGGCA [U7C U70C]	1.04
GUCCUCCUUCACGUGCGCGUGAAAGAGAGAAGUGAACCAGAGAAACACACGAUGUGGUAUAUUACCUGGUA [U7C U52A]	0.82
GUCCUCGUUCACGUGCGCGUGAAAAAGAGAAGUGAACCAGAGAAACACACGUUGUGGUAUAUUACCUGGUA [U7G G25A]	0.316
GUCCUCGUUCACGUGCGCGUGAAAGAGAGAAGUGAACCAGAGAAACACACGUUGUGGUAUAUUACCUGGUU [U7G A71U]	0.746
GUCCUCGUUCACGUGAGCGUGAAAGAGAGAAGUGAACCAGAGAAACACACGUUGUGGUAUAUUACCUGGUA [U7G C16A]	0.929
GUCCUCCUUCACGUGCGCGUGAAAGAGAGAAGUGAACCAGAGAAACACACGUUGUGGUAUAUAACCUGGUA [U7C U63A]	0.19
GUCCUCCUUCACGUGCGCGUGAAAGAGAGAAGUGAACCAGAGAAACACACGUUGUGGUAUAUGACCUGGUA [U7C U63G]	0.161
GUCCUCGUUCACGUGCGCGUGAAAGAGAGAAGUGAACCAGAGAAACACCCGUUGUGGUAUAUUACCUGGUA [U7G A49C]	0.141
GUCCUCGUUCACGUGCGCGUGAAAGAGAGAAGUGAACCAGAGAAACACUCGUUGUGGUAUAUUACCUGGUA [U7G A49U]	0.15
GUCCUCGUUCACGUGCGCGUGAAAGAGAGAAGUGAACCAGAGAAAUACACGUUGUGGUAUAUUACCUGGUA [U7G C46U]	0.129
GUCCUCGUUCACGUGCGCGUGGAAGAGAGAAGUGAACCAGAGAAACACACGUUGUGGUAUAUUACCUGGUA [U7G A22G]	0.908
GUCCUCGUUCACGUGCGCGUGCAAGAGAGAAGUGAACCAGAGAAACACACGUUGUGGUAUAUUACCUGGUA [U7G A22C]	0.515
GUCCUCGUUCACGUGCGCGUGAAAGAGAGAAGUGAACCAGAGAAACACACGUUGUGGUAUAUUGCCUGGUA [U7G A64G]	0.461
GUCCUCCUUCACGUGCGCGUGAAAGAGAGAAGUGAACCAGAGAAACACACGUUGUGGGAUAUUACCUGGUA [U7C U58G]	0.815
GUCCUCCUUCACGCGCGCGUGAAAGAGAGAAGUGAACCAGAGAAACACACGUUGUGGUAUAUUACCUGGUA [U7C U14C]	0.925
GUCCUCCUUCACGGGCGCGUGAAAGAGAGAAGUGAACCAGAGAAACACACGUUGUGGUAUAUUACCUGGUA [U7C U14G]	0.723
GUCCUCGUUCACGUGCGCGUGAAAGAGAGAAGUGAACCAGAGAAACACACGUUAUGGUAUAUUACCUGGUA [U7G G54A]	0.642
GUCCUCGUUCACGUGCGCGUGAAAGAGAGAAGUGAACCAGAGAAACACACGUUUUGGUAUAUUACCUGGUA [U7G G54U]	0.619
GUCCUCGUUCACGUGCGCGUGAAAGAGAGAAGUGAACCAGAGCAACACACGUUGUGGUAUAUUACCUGGUA [U7G A43C]	0.138
GUCCUCGUUCACGUGCGCGUGAAAGAGGGAAGUGAACCAGAGAAACACACGUUGUGGUAUAUUACCUGGUA [U7G A28G]	1.06
GUCCUCGUUCACGUGCGCGUGAAAGAGCGAAGUGAACCAGAGAAACACACGUUGUGGUAUAUUACCUGGUA [U7G A28C]	0.329
GUCCUCGUUCACGUGCGCGUGAAAGAGAGAAGUCAACCAGAGAAACACACGUUGUGGUAUAUUACCUGGUA [U7G G34C]	1.39
GUCCUCGUUCACGUGCGCGUGAAAGAGAGAAGUAAACCAGAGAAACACACGUUGUGGUAUAUUACCUGGUA [U7G G34A]	0.984
GUCCUCGUUCACGUGCGCGUGAAAGAGAGAAGUGAACCAGAGAAACACAGGUUGUGGUAUAUUACCUGGUA [U7G C50G]	0.143
